Assay results from US20140120095A1 (Boehringer Ingelheim, published 2014).
Where a chain is given by its changes, count along the chain named.

T1: cynomolgus DLL4 expressed on CHO cells (cynomolgus, UniProt Q9NR61 27-685 (human entry))
T1 construct: also called cDLL4; CHO-cDLL4
T1 chain: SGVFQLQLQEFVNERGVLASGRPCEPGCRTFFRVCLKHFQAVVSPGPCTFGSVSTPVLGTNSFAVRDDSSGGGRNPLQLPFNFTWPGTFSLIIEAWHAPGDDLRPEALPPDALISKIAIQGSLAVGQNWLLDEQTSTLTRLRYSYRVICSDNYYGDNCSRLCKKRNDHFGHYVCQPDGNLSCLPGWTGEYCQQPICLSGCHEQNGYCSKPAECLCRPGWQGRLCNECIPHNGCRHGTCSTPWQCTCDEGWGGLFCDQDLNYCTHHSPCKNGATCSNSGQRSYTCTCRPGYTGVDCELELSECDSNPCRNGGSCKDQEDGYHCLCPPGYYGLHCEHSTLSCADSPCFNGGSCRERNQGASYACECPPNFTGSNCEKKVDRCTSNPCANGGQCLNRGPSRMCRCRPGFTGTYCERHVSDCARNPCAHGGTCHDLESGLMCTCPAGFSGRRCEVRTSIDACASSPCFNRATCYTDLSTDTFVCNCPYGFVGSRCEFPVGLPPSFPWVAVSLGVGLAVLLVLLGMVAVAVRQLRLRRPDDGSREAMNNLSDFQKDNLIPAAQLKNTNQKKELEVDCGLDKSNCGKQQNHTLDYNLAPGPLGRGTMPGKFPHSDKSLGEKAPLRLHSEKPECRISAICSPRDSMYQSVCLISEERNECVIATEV

B1: DLLBII015 (VHH, not shown: small tags and cut ends)
VHH: EVQLVESGGGLVQPGGSLRLSCAASGFTIGSYDMSWVRRSPGKGPEWVSAINSGGGSTYYADYVKGRFTISRDNAKNTLYLQMNSLKPEDTAVYYCAADRYIWARQGEYWGAYAYDYWGQGTQVTVSS
B2: DLLBII133A09 (VHH, not shown: small tags and cut ends)
VHH: B1 VHH with I29F
B3: DLLBII133G05 (VHH, not shown: small tags and cut ends)
VHH: B1 VHH with I29F, A61T
B4: DLLBII136C07 (VHH, not shown: small tags and cut ends)
VHH: B1 VHH with I29F, A50S, A114E
B5: DLLBII101G08 (VHH, not shown: small tags and cut ends)
VHH: EVQLVESGGGLVQAGGSLRLSCAASGRTFSSYAMAWFRQAPGKEREFVAAIRWSGGTAYYADSVQGRFTISRDNAKNTVYLQMNSLKPEDTAVYYCANRAADTRLGPYEYDYWGQGTQVTVSS
notes: parent VHH; also called 101G08 (wt); 101G8
B6: DLLBII129B05 (VHH, not shown: small tags and cut ends)
VHH: B5 VHH with F37Y, F47Y, A101P, G106A, Y112H
B7: DLLBII129E11 (VHH, not shown: small tags and cut ends)
VHH: B5 VHH with F37Y, F47Y, A101P, G106R, E109L
B8: DLLBII129D08 (VHH, not shown: small tags and cut ends)
VHH: B5 VHH with F37Y, F47Y, A101P, G106E, E109L

biological target: T2, recombinant human DLL4 (C-terminally His-tagged extracellular domain, R&D Systems) (human, UniProt Q9NR61 25-522, biotinylated in the competition ELISA); assay: SPR (Biacore), rhDLL4
T2 construct: also called rhDLL4; hDLL4
Experimental: Kinetic analysis to determine the affinity of the DII4-VHH interaction is performed by Surface Plasmon Resonance (SPR) on a Biacore T100 instrument. […] Purified VHHs or Fab fragment are injected for 2 minutes at different concentrations (between 10 and 300 nM) and allowed to dissociate for 20 min at a flow rate of 45 μl/min. Between sample injections, the surfaces are regenerated with 10 mM glycine pH1.5 and 100 mM HCl. HBS-N (Hepes buffer pH7.4) is used as running buffer. If possible, data are evaluated by fitting a 1:1 interaction model (Langmuir binding) onto the binding curves. The affinity constant KD is calculated from resulting association and dissociation rate constants (kₐ) and […].

Kd [nM] | koff [s⁻¹] | kon [M⁻¹ s⁻¹] | Binder
1 | 0.00047 | 450000 | B1
2.1 | 0.0009 | 440000 | B2
0.8 | 0.00047 | 590000 | B3
0.6 | 0.00039 | 620000 | B4
48 | 0.0023 | 48000 | B5
0.3 | 7.9e-05 | 230000 | B6
0.5 | 9e-05 | 190000 | B7
0.4 | 6.4e-05 | 180000 | B8

biological target: T3, recombinant mouse DLL4 (C-terminally His-tagged extracellular domain, R&D Systems) (mouse, UniProt Q9JI71 27-532); assay: SPR (Biacore), rmDLL4
T3 construct: extracellular domain; also called rmDLL4; mDLL4
T3 sequence (Q9JI71 27-532): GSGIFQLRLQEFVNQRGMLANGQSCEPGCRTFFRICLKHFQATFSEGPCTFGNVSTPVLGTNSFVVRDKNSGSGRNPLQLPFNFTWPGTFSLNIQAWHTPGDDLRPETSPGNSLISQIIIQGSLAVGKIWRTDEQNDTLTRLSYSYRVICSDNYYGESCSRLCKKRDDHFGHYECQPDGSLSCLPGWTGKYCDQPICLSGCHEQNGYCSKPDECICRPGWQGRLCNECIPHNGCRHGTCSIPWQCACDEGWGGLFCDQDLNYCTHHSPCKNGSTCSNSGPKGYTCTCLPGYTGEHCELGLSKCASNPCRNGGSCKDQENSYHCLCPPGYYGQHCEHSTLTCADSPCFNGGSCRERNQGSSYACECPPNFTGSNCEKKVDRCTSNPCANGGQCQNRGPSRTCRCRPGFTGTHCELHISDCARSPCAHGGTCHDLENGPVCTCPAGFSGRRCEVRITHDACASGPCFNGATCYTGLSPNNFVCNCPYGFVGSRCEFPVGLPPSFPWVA

Kd [nM] | koff [s⁻¹] | kon [M⁻¹ s⁻¹] | Binder
4.3 | 0.0015 | 350000 | B1
7.8 | 0.0027 | 350000 | B2
3.4 | 0.0016 | 470000 | B3
2.6 | 0.0013 | 500000 | B4
60 | 0.0056 | 94000 | B5
1.1 | 0.00031 | 270000 | B6
1.2 | 0.00029 | 250000 | B7
0.8 | 0.0002 | 270000 | B8

biological target: T4, human DLL4 expressed on cells (CHO-hDLL4; HEK293-hDLL4) (human, UniProt Q9NR61 27-685); assay: cell-based or functional assay

IC50, DLL4-mediated reporter assay [nM] | Binder
18 | B1
87 | B2
104 | B3
226 | B4
1940 | B5
60 | B6
98 | B7
77 | B8

Biological target: T1, cynomolgus DLL4 expressed on CHO cells
Assay: FACS on CHO-cDLL4 cells

EC50 [nM] | Binder
5.1 | B1
2.3 | B2
2.7 | B3
3.5 | B4
11.2 | B5
3.9 | B6
4.2 | B7
3.8 | B8

biological target: T4, human DLL4 expressed on cells …; assay: FACS on CHO-hDLL4 cells

EC50 [nM] | Binder
14.8 | B1
7.2 | B2
8.5 | B3
10.9 | B4
17.5 | B5
9.7 | B6
1.4 | B7
9.6 | B8

biological target: T5, mouse DLL4 expressed on CHO cells (mouse, UniProt Q9JI71 27-686); assay: FACS on CHO-mDLL4 cells
T5 construct: whole, on cells; also called mDLL4; CHO-mDLL4
T5 sequence (Q9JI71 27-686): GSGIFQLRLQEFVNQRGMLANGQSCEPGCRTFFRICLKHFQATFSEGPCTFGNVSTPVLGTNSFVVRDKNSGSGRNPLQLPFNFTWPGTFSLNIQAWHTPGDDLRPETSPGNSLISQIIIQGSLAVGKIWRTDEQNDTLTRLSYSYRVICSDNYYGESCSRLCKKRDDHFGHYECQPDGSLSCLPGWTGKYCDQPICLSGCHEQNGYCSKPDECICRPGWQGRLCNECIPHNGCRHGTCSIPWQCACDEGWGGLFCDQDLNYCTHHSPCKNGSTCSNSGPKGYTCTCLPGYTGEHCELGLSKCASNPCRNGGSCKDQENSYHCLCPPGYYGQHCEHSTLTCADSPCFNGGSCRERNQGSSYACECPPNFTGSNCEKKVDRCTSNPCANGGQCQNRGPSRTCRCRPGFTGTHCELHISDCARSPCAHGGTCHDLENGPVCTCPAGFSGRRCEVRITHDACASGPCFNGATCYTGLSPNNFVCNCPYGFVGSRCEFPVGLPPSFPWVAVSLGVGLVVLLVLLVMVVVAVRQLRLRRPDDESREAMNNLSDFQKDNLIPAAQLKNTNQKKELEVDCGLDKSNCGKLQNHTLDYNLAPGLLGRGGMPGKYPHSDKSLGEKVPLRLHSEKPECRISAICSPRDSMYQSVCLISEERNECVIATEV

EC50 [nM] | Binder
7 | B1
1.7 | B2
2.8 | B3
8.3 | B4
3.9 | B6
4.1 | B7
3.7 | B8

biological target: T2, recombinant human DLL4 (C-terminally …); assay: SPR (Biacore); summary table

Kd [nM] | Binder
1 | B1
2.1 | B2
0.8 | B3
0.6 | B4
48 | B5
0.3 | B6
0.5 | B7
0.4 | B8

biological target: T3, recombinant mouse DLL4 (C-terminally …); assay: SPR (Biacore); summary table

Kd [nM] | Binder
4.3 | B1
7.8 | B2
3.4 | B3
2.6 | B4
60 | B5
1.1 | B6
1.2 | B7
0.8 | B8

biological target: T4, human DLL4 expressed on cells …; assay: competition FMAT CHO-hDLL4; summary table

IC50 [nM] | Binder
5.7 | B1
6.6 | B2
5.9 | B3
8 | B4
69.3 | B5
7.4 | B6
8.1 | B7
7.8 | B8

biological target: T5, mouse DLL4 expressed on CHO cells; assay: competition FMAT CHO-mDLL4; summary table

IC50 [nM] | Binder
21.2 | B1
18.6 | B2
12 | B3
31.2 | B4
140 | B5
14.4 | B6
12.3 | B7
11 | B8

Biological target: T1, cynomolgus DLL4 expressed on CHO cells
Assay: FACS; summary table, column taken as cDLL4

EC50 [nM] | Binder
5.1 | B1
2.3 | B2
2.7 | B3
3.5 | B4
11.2 | B5
3.9 | B6
4.2 | B7
3.8 | B8

biological target: T4, human DLL4 expressed on cells …; assay: FACS; summary table, column taken as hDLL4

EC50 [nM] | Binder
14.8 | B1
7.2 | B2
8.5 | B3
10.9 | B4
17.5 | B5
9.7 | B6
10.4 | B7
9.6 | B8

biological target: T5, mouse DLL4 expressed on CHO cells; assay: FACS; summary table, column taken as mDLL4

EC50 [nM] | Binder
7 | B1
1.7 | B2
2.8 | B3
8.3 | B4
3.9 | B6
4.1 | B7
3.7 | B8

biological target: T2, recombinant human DLL4 (C-terminally …); assay: competition ELISA hDLL4/hNotch1-Fc; summary table

IC50 [nM] | Binder
0.9 | B1
1.5 | B2
2 | B3
1.4 | B4
10 | B5
0.9 | B6
1.3 | B7
1.2 | B8

biological target: T4, human DLL4 expressed on cells …; assay: competition FMAT, labelled hNotch1-Fc on CHO-hDLL4 cells

IC50 [nM] | Binder
5.7 | B1
6.6 | B2
5.9 | B3
8 | B4
69.3 | B5
7.4 | B6
8.1 | B7
7.8 | B8

biological target: T5, mouse DLL4 expressed on CHO cells; assay: competition FMAT, labelled hNotch1-Fc on CHO-mDLL4 cells

IC50 [nM] | Binder
21.2 | B1
18.6 | B2
12 | B3
31.2 | B4
140 | B5
14.4 | B6
12.3 | B7
11 | B8

biological target: T2, recombinant human DLL4 (C-terminally …); assay: competition ELISA, biotinylated hDLL4 to coated hNotch1-Fc

IC50 [nM] | Binder
0.9 | B1
1.5 | B2
2 | B3
1.4 | B4
10 | B5
0.9 | B6
1.3 | B7
1.2 | B8
